Earlier results on 1 substance are cited in PMC9090500.

By Kd is commonly meant the equilibrium constant for the complex coming apart.

The data set concerns the target IL18 (Homo sapiens) (UniProt Q14116).

IL18 (Homo sapiens), sequence (Q14116 37-193): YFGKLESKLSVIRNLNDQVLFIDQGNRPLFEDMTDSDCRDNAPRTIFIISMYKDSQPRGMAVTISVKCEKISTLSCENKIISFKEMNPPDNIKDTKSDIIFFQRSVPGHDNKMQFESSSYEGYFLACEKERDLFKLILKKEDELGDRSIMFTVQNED
IL18BP, sequence (O95998 31-194): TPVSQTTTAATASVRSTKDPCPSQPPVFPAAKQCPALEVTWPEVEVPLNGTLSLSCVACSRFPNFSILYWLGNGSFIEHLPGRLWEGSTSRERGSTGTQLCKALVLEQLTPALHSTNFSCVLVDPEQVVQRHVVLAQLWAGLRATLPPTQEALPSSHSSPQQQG

As for IL18BP (from UniProt O95998), the Kd is 400 nM.
